Results from article PMC10793675 (mAbs, 2023).

T1: biotinylated avi-tagged canine PD-1 soluble protein (canine, biotin)
T1 chain: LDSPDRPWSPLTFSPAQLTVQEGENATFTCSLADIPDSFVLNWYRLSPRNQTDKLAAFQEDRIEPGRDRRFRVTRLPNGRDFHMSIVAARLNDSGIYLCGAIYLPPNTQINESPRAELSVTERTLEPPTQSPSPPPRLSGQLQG


Legend:
[1] = target: canine PD-1 expressed on the surface of KTδ32 cells (Canis lupus familiaris, UniProt A0A090BAM7); test: flow cytometry on cells
[2] = target: T1, biotinylated avi-tagged canine PD-1 …; test: ELISA
[3] = target: recombinant canine PD-1 protein, His tag (Canis lupus familiaris, UniProt A0A090BAM7); test: SPR

Binder	binding result [1]	binding result [2]	binding half-life [3] [h]	koff [3] [s⁻¹]	kon [3] [M⁻¹ s⁻¹]
P3C6 soluble scFv (scFv, V domains shown) VH: EVQLVQSGGDLVKPGGSLRLSCMASGFTFSKYGMSWVRQSPGKGLQWVADIAANGGTYYTDAVKGRFTISRDNAKNALYLQMDDLRAEDTAVYYCARWGGAPFDYWGQGTLVTVSS VL: EIVMTQSPASLSLSQEEKVTITCRASQSVSSYLAWYQQKPGQAPKLLIYGTSNRATGVPSRFSGSGSGTDFSFTISSLEPEDVAVYYCQQGLQYPITFGKGTHLEIK	binds	binds			
P3C6mut3.2 full-length canine IgGD (antibody, V domains shown) VH: EVQLVQSGGDVVKPGGSLRLSCVASGFTFSKYGMSWVRQSPGKGLQWVADIAANGGTYYTDAVKGRFTISRDNAKNTLYLQMNSLRAEDTAVYYCARWGGAPFDYWGQGTLVTVSS VL: EIVMTQSPASLSLSQEEKVTITCRASQSVSSYLAWYQQKPGQAPKLLIYGTSNRATGVPSRFSGSGSGTDFSFTISSLEPEDVAVYYCQQGLQYPITFGKGTHLEIK	binds				
P3C6mut3.1 full-length canine IgGD (antibody, V domains shown) VH: EVQLVQSGGDVVKPGGSLRLSCMASGFTFSKYGMSWVRQSPGKGLQWVADIAANGGTYYTDAVKGRFTISRDNAKNTLYLQMNSLRAEDTAVYYCARWGGAPFDYWGQGTLVTVSS VL: EIVMTQSPASLSLSQEEKVTITCRASQSVSSYLAWYQQKPGQAPKLLIYGTSNRATGVPSRFSGSGSGTDFSFTISSLEPEDVAVYYCQQGLQYPITFGKGTHLEIK			1.35	0.000143	131000
P4B1 soluble scFv (scFv, V domains shown) VH: EVQLVQSGGDVVKPGGSLRLSCVASGFTFNTYGMNWVRQSPGKGLQWVAAIANSGSTYYADAVRGRFTISRDNAKNTLYLQMNSLRAEDAAIYYCASGIWGDWFYYWGQGTLVTVSS VL: SSVLTQPPSVSVSLGQTATISCSGESLTKYYAQWFQQKPGQAPMLVIYKDTERPSGIPDRFSGSSSGNTHTLTISGARAEDEADYYCESAVSADAVVFGGGTHLTVL		binds			
